The source of these data is FireProtDB.

Where “and” joins values, the source holds several entries; their conditions need not be identical. Equal values may be shown once.

In general, Tm refers to the temperature at which the thermal transition is half complete.

For this series the following is noted: whole UniProt chain shown.
Setting [1] is: Escherichia coli (strain K12), pH 7.4, Thermal, DSC, phosphate 5 mM, reversible: yes.
The mark [2] stands for this setting: Escherichia coli (strain K12), pH 7, 25 °C, Thermal, DSC, tetra-borate 1 mM, reversible: yes(70-95%).
Setting [3] is: Escherichia coli (strain K12), pH 7, Thermal, CD, tetra-borate 1 mM, reversible: yes(70-95%).
Where [4] appears, read: Escherichia coli (strain K12), pH 7, Thermal, DSC, tetra-borate 1 mM, reversible: yes(70-95%).
[5] abbreviates: Escherichia coli (strain K12), pH 7.8, 25 °C, Urea, CD, Potassium phosphate 10 mM, transition: 3.
Where [6] appears, read: Escherichia coli (strain K12), pH 7.8, 25 °C, Urea, CD, Potassium phosphate 10 mM.
Where [7] appears, read: Escherichia coli (strain K12), pH 9.3, 25 °C, Thermal, DSC, tetra-borate 1 mM, reversible: yes(70-95%).
[8] abbreviates: Escherichia coli (strain K12), pH 9.3, Thermal, CD, tetra-borate 1 mM, reversible: yes(70-95%).
[9] abbreviates: Escherichia coli (strain K12), pH 9.3, Thermal, DSC, tetra-borate 1 mM, reversible: yes(70-95%).
[10] abbreviates: Escherichia coli, pH 6, 19 °C, GdnHCl, CD, sodium phosphate 10 mM, sodium sulphate 10 mM, reversible: yes.
Setting [11] is: Escherichia coli, pH 6, 25 °C, GdnHCl, CD, sodium phosphate 10 mM, sodium sulphate 10 mM, reversible: yes.
[12] abbreviates: Escherichia coli, pH 6, 25 °C, Thermal, DSC, Sodium phosphate 10 mM, Na2SO4 10 mM, reversible: yes.
[13] abbreviates: Escherichia coli, pH 6, Thermal, DSC, Sodium phosphate 10 mM, Na2SO4 10 mM, reversible: yes.

B1: L-arabinose-binding periplasmic protein wild type, P02924 (protein)
chain: MHKFTKALAAIGLAAVMSQSAMAENLKLGFLVKQPEEPWFQTEWKFADKAGKDLGFEVIKIAVPDGEKTLNAIDSLAASGAKGFVICTPDPKLGSAIVAKARGYDMKVIAVDDQFVNAKGKPMDTVPLVMMAATKIGERQGQELYKEMQKRGWDVKESAVMAITANELDTARRRTTGSMDALKAAGFPEKQIYQVPTKSNDIPGAFDAANSMLVQHPEVKHWLIVGMNDSTVLGGVRATEGQGFKAADIIGIGINGVDAVSELSKAQATGFYGSLLPSPDVHGYKSSEMLYNWVAKDVEPPKFTEVTDVVLITRDNFKEELEKKGLGGK
As for B1, under setting [1], the Tm amounted to 53.6 °C, the “heat capacity change of unfolding” value was 3.16 kcal/mol/K and the “unfolding enthalpy (calorimetric)” value is 152 kcal/mol.

B2: Regulatory protein cro wild type, P03040 (protein)
chain: MEQRITLKDYAMRFGQTKTAKDLGVYQSAINKAIHAGRKIFLTINADGSVYAEEVKPFPSNKKTTA
Regarding B2, the Tm runs as follows: (Escherichia phage lambda, pH 3, Thermal, CD, Potassium phosphate 10 mM, KCl 0.1 M, reversible: yes) 40 °C; (Escherichia phage lambda, pH 7, Thermal, CD, Potassium phosphate 10 mM, KCl 0.1 M, reversible: yes) 39.5 °C.

B3: Tryptophan synthase alpha chain wild type, P0A877 (protein)
chain: MERYESLFAQLKERKEGAFVPFVTLGDPGIEQSLKIIDTLIEAGADALELGIPFSDPLADGPTIQNATLRAFAAGVTPAQCFEMLALIRQKHPTIPIGLLMYANLVFNKGIDEFYAQCEKVGVDSVLVADVPVEESAPFRQAALRHNVAPIFICPPNADDDLLRQIASYGRGYTYLLSRAGVTGAENRAALPLNHLVAKLKEYNAAPPLQGFGISAPDQVKAAIDAGAAGAISGSAIVKIIEQHINEPEKMLAALKVFVQPMKAATRS
Consider B3, for which the unfolding free energy (Escherichia coli (strain K12), pH 7, 25 °C, GdnHCl, CD, Potassium phosphate 0.01 M, reversible: yes) is 9.3 kcal/mol; the unfolding free energy (Escherichia coli (strain K12), pH 7, 25 °C, Thermal, CD, tetra-borate 1 mM, reversible: yes(70-95%)) is 6.7 kcal/mol; the unfolding free energy under setting [2] came out at 8.4 kcal/mol; the unfolding free energy (Escherichia coli (strain K12), pH 7, 25.8 °C, GdnHCl, CD, Potassium phosphate 0.01 M, reversible: yes) came to 8.8 kcal/mol; the unfolding free energy under setting [5] is 7.9 kcal/mol and 5.4 kcal/mol; the unfolding free energy under setting [6] is 5.91 kcal/mol. The unfolding free energy came to 3.9 kcal/mol (Escherichia coli (strain K12), pH 9.3, 25 °C, Thermal, CD, tetra-borate 1 mM, reversible: yes(70-95%)) and 5.8 kcal/mol under setting [7]. The “unfolding enthalpy (calorimetric)” value by setting is: under setting [2], 23.2 kcal/mol; under setting [7], 23.2 kcal/mol. Also, the midpoint of thermal melting (Tm) reads like this: under setting [3], 61.2 °C; under setting [4], 62.4 °C; under setting [8], 50.4 °C; under setting [9], 54.3 °C. In addition, the “heat capacity change of unfolding” value runs as follows: under setting [3], 2.45 kcal/mol/K; under setting [4], 2.87 kcal/mol/K; under setting [8], 2.45 kcal/mol/K; under setting [9], 2.87 kcal/mol/K. Moreover, the “unfolding enthalpy (van 't Hoff)” value is, setting by setting: under setting [3], 19.7 kcal/mol; under setting [8], 19.7 kcal/mol. The denaturant m value runs as follows: under setting [5], 2.9 kcal/mol/M and 1.3 kcal/mol/M; under setting [6], 2.23 kcal/mol/M.

B4: Regulatory protein rop wild type, P03051 (protein)
chain: MTKQEKTALNMARFIRSQTLTLLEKLNELDADEQADICESLHDHADELYRSCLARFGDDGENL
Regarding B4, under setting [10], the denaturant m value is 2.75 kcal/mol/M, the “denaturant midpoint (higher = more stable)” value worked out at 3.3 M and the unfolding free energy is 16 kcal/mol. Besides, under setting [11], the denaturant m value was 3.06 kcal/mol/M, the “denaturant midpoint (higher = more stable)” value was 3.23 M and the unfolding free energy was 16.9 kcal/mol. For the same protein, under setting [12], the “heat capacity change of unfolding” value worked out at 2.46 kcal/mol/K and the unfolding free energy amounted to 17.1 kcal/mol. Also, under setting [13], the melting temperature (Tm) came to 71 °C, the “heat capacity change of unfolding” value stood at 2.46 kcal/mol/K, the “unfolding enthalpy (calorimetric)” value is 139 kcal/mol and the “unfolding enthalpy (van 't Hoff)” value is 130 kcal/mol. For the same protein, for the setting “Escherichia coli, pH 7, Thermal, CD, Sodium phosphate 100 mM, NaCl 200 mM”, the midpoint of thermal melting (Tm) amounted to 64 °C.
